Test results from paper PMC4714512.

molecular target: Human histone H3.5 (human) (UniProt Q6NXT2); assay: native gel or EMSA; nucleosomes reconstituted with 146 base-pair human alpha-satellite DNA by salt dialysis from 2 M KCl, heated at 55 °C for 2 h, purified by preparative non-denaturing PAGE; analysed by non-denaturing 6 % PAGE and 18 % SDS-PAGE (histone composition)

stoichiometry N | Substance
1 | Human histone H2A (from UniProt P04908 1-130) (natural protein)
1 | Human histone H2B (from UniProt P06899 1-126) (natural protein)
1 | Human histone H4 (from UniProt P62805 1-103) (natural protein)
